US20260193638A1 (ROCHE DIAGNOSTICS OPERATIONS, published 2026)

Assays:
[1] = target: T1, human recombinant TNFα (fully intact trimeric TNFα) (human, UniProt P01375 77-233); test: SPR, TT10F7 captured, TNFα (52 kDa trimer) in solution, + TWEEN 20
T1 construct: also called hrTNFα
Procedure: (§1) The samples were diluted in the instrument's buffer. In another embodiment the buffer was HBS-E buffer (10 mM HEPES pH 7.4, 150 mM NaCl, 3 mM EDTA) and the samples were diluted in the detergent-free buffer. The system operated at 25° C. 10000 RU GAR-Fcγ (relative units of Fcγ-fragment binding, polyclonal goat anti-Rabbit IgG/Jackson Laboratories) were immobilized according to the manufacturer's instructions using EDC/NHS chemistry on all 4 flow cells. The sensor is finally deactivated using 1M ethanolamine. […] A monoclonal rabbit anti-Thermus thermophilus SlyD core protein (0612pS3A8) binding antibody, was captured in all flow cells by a 6 min injection at 5 μl/min. […] Flow cell 1 served as a reference. […] The Thermus thermophilus SlyD-FKBP clones were specifically captured on the sensor by a 2 min injection at 30 μl/min directly from a 1:25 diluted 10000 g-centrifuged E. coli lysate supernatant.
(§2) The flow rate was set to 100 μl/min. […] The dissociation was monitored for 5 minutes.

[2] = target: T1, human recombinant TNFα (fully intact …); test: SPR, TT10F7 captured, TNFα (52 kDa trimer) in solution, - TWEEN 20
Procedure: as §1, §2

[3] = target: Streptavidin (11897000, Roche) (UniProt P22629 37-163, limits assumed); test: SPR, TT10F7 captured via anti-SlyD antibody, streptavidin in solution
Sequence of Streptavidin (11897000, Roche) (P22629 37-163 limits assumed): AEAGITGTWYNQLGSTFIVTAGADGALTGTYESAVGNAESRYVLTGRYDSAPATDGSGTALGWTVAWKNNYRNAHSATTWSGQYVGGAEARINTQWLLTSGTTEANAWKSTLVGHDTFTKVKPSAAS
Procedure: as §1, §2

[4] = target: T1, human recombinant TNFα (fully intact …); test: SPR BIACORE 3000, TT10F7 captured via anti-SlyD antibody, trimeric TNFα as analyte
Procedure: as §1, with “A CM5 series sensor was mounted into the system and was normalized in HBS-ET buffer (10 mM HEPES pH 7.4, 150 mM NaCl, 3 mM EDTA, 0.005% w/v Tween 20) according to the manufacturer's instructions. The samples” for “The samples”
as §2

[5] = target: T1, human recombinant TNFα (fully intact …); test: SPR, C10B9 captured via anti-SlyD antibody, TNFα in solution
Procedure: as §1, §2

T1 sequence (P01375 77-233 limits assumed): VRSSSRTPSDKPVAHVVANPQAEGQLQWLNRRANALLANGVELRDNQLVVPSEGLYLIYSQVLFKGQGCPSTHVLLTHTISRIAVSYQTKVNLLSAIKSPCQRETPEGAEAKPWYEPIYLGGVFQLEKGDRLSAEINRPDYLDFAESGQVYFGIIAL

| Binder | Kd [1] [nM] | koff [1] [s⁻¹] | kon [1] [M⁻¹ s⁻¹] | Kd [2] [nM] | koff [2] [s⁻¹] | kon [2] [M⁻¹ s⁻¹] | binding result [3] | stoichiometry [4] | binding result [5] |
| --- | --- | --- | --- | --- | --- | --- | --- | --- | --- |
| Thermus thermophilus SlyD-FKBP TT10F7 (designed binder, captured on the sensor directly from E. coli lysate; also called TT10F7 mutant; TT10F7 T.t.SlyD-FKBP12) MRSKVGQDKVVTIRYTLQVEGEVLDQGELSYLHGHRNLIPGLEEALEGREEGEAFQAHVPAEKAYGAGSWKPHFNLHLLYLIGSSGKDLDFQVEVVKVREATPEELLHGHAHGGAAAGLNDIFEAQKIEWHEGSRKHHHHHHHH | 258 | 0.00268 | 10400 | 262 | 0.00103 | 3960 | no binding (tested: 1 µM) | 3 to 1 | – |
| Thermus thermophilus SlyD-FKBP clone C10B9 (designed binder, also called C10B9 mutant) MRSKVGQDKVVTIRYTLQVEGEVLDQGELSYLHGHRNLIPGLEEALEGREEGEAFQAHVPAEKAYGAGSYYVLITDNLVYFGGSSGKDLDFQVEVVKVREATPEELLHGHGGAAAGLNDIFEAQKIEWHEGSRKHHHHHHHH | – | – | – | – | – | – | – | – | no binding (tested: 1 µM) |
